Patent US11246958B2, “Haemostatic compositions” (HAEMOSTATIX LIMITED, priority 2015, dated 2022)
Where no end group is shown, it is not given here.

Tests used:
[1] = biological target: T1, purified human fibrinogen (Homo sapiens, UniProt P02675+P02679); assay: Copolymerisation of peptide dendrimers with purified human fibrinogen, clotting time on KC4 Delta coagulation analyser; format: biochemical; details: for activity of mixtures of peptide conjugate and peptide dendrimer in copolymerising with fibrinogen: conjugate 2 mg/ml mixed with Peptide Dendrimer No. 3 or 4 at 0.025-0.5 mg/ml
T1 sequence (P02679 27-437 isoform P02679-2 limits assumed): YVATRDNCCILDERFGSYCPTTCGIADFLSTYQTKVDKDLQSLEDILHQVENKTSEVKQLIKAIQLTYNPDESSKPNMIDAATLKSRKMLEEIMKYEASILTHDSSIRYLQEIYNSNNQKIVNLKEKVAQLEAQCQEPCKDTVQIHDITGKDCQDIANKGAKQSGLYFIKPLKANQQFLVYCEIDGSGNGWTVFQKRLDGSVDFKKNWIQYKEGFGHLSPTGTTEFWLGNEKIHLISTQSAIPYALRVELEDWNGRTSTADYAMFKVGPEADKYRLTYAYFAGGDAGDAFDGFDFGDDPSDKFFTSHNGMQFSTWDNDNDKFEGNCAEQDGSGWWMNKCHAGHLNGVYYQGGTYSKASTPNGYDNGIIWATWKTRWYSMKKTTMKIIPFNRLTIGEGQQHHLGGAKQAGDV
T1 sequence (P02675 31-491): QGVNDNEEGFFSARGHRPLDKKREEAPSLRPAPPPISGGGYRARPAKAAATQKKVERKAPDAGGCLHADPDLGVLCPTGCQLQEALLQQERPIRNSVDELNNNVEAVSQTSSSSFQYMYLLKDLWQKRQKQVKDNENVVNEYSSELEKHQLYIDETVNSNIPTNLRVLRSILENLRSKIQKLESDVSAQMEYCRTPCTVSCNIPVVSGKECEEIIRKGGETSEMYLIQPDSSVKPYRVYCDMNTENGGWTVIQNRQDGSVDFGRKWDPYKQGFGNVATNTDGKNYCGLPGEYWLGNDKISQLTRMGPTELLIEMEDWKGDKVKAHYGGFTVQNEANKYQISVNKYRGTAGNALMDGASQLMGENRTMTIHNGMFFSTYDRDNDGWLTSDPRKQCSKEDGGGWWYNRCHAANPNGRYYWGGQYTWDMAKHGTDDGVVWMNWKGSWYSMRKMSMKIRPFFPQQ
T1 sequence (P02671 20-629 partner limits assumed): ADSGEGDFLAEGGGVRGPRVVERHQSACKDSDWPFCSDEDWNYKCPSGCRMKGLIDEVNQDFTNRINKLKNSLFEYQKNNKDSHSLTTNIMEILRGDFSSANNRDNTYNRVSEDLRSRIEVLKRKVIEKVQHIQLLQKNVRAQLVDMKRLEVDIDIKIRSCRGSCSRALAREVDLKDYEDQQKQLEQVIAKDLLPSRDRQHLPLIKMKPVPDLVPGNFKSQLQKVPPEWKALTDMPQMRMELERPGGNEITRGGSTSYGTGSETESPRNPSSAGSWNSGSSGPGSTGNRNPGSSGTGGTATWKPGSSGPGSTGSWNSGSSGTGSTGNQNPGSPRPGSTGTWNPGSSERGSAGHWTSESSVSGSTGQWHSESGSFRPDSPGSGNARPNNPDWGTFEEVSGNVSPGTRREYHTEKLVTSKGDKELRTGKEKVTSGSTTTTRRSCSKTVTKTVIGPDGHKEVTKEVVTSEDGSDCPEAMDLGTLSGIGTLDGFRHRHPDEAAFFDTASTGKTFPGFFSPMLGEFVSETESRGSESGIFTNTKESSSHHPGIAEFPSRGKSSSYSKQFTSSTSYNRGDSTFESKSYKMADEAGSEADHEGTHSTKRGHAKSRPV
Protocol: The ability of Peptide Dendrimer No. 12 to polymerise fibrinogen was assessed. 30 μl of dendrimer in solution, at concentration ranging from 0.005-2 mg/ml, was added to 100 μl purified human fibrinogen at 3 mg/ml (the level of fibrinogen found in the blood). Polymerisation of fibrinogen was analysed using a Sigma Amelung KC4 Delta coagulation analyser.
The ability of Peptide Dendrimer Nos. 4, 5, 10, 11, and 12 to copolymerise with fibrinogen was assessed using the same method described in Example 2. The concentration of each dendrimer was varied from 0.005-0.5 mg/ml.
The ability of the dendrimers to copolymerise with fibrinogen was assessed using the same method described in Example 2, for a concentration of each dendrimer ranging from 0.005-0.5 mg/ml.
Peptide Conjugate No. 1 or 2 (2 mg/ml) was mixed with Peptide Dendrimer No. 3 or 4, and fibrinogen, and the ability of the mixtures to copolymerise with fibrinogen was assessed using the same method described in Example 2, for a concentration of each dendrimer ranging from 0.025-0.5 mg/ml.

[2] = biological target: T2, fibrinogen in human plasma (Homo sapiens, UniProt P02675+P02679); assay: Polymerisation of fibrinogen in human plasma by peptide dendrimers; format: biochemical; details: 30 μL dendrimer 0.25 mg/ml in 100 μL human plasma, 37° C.
T2 construct: from tissue; host or cells: human plasma
T2 sequence (P02679 27-437 isoform P02679-2 limits assumed): T1 sequence (P02679 27-437 isoform P02679-2 limits assumed)
T2 sequence (P02675 31-491): T1 sequence (P02675 31-491)
T2 sequence (P02671 20-629 partner limits assumed): T1 sequence (P02671 20-629 partner limits assumed)
Protocol: 30 μL of each dendrimer (at a concentration of 0.25 mg/ml) was added to 100 μL human plasma at 37° C., and polymerisation of fibrinogen was determined using a Sigma Amelung KC4 Delta coagulation analyzer.

| Substance | activity of mixtures of peptide conjugate and peptide dendrimer in copolymerising with fibrinogen [1] | ability to copolymerise with fibrinogen ([1]; dendrimer 0.005-0.5 mg/ml, fibrinogen 3 mg/ml) | ability to polymerise fibrinogen in human plasma [2] |
| --- | --- | --- | --- |
| Peptide Conjugate No. 1: two GPRP fibrinogen-binding peptides each attached by a linker to a lysine residue, second attached by amino-terminal end and amidated (peptide 2 GPRP-NH2; also: each GPRP attached by a linker to a lysine residue, second attached by amino-terminal end) | not active |  |  |
| Peptide Conjugate No. 2: GHRPY peptide and reverse sequence YPRHG (amidated), each attached by a linker to a lysine residue (peptide 2 YPRHG-NH2; also: each peptide attached by a linker to a lysine residue) | synergistic and increased activity |  |  |
| Peptide Dendrimer No. 9: three-branch dendrimer, two GPRPFPA peptides and one APFPRPG attached by its amino-terminal end, carboxy-terminal amide (chain 2 APFPRPG-NH2; not fully specified; also: three-branch dendrimer: two GPRPFPA and one APFPRPG attached by amino-terminal end; listed as Homo sapiens) |  | very active in copolymerising with fibrinogen | not able to polymerise fibrinogen in human plasma |
